{
  "source": "paper doi:10.1101/487769",
  "target": "Hfq-FLAG (Yersinia pestis Hfq with C-terminal 3 x Flag tag) (Yersinia pestis)",
  "assay": "native gel or EMSA",
  "note": "“And” between values parts separate entries of the source, which are not always exact repeats. Equal entries are not always repeated.",
  "data": [
    {"substance": "Hfq-FLAG (Yersinia pestis Hfq with C-terminal 3 x Flag tag) (natural protein)", "values": [
      {"measurement": "stoichiometry N", "value": "3 and 6"}
    ]}
  ]
}
